Data on 19 molecules can be found in article PMC6908506, “Development of Foot-and-Mouth Disease Virus-Neutralizing Monoclonal Antibodies Derived From Plasmablasts of Infected Cattle and Their Germline Gene Usage” (Frontiers in Immunology, 2019).

The chains are these.
B1: B57 (antibody, V domains shown)
VH: QVQLRESGPSLVKPSQTLSLTCTVSGFSLSGYAVTWVRRAPGQALECLGGISRGGLTNNNPALRSRVSITKDDSKSQVSLSVSTVTPEDTATYYCVRLGATKFGDYGCYGYGLYVDTWGQGLPVTVSS
VL: QAVLTQPSSVSGSLGQRVSITCSGSSSNIGRHGVSWYQQVPGSGLRTIIYSGNSRPSGVPDRFSGSKSGNTATLTISSLLAEDEADYFCAADDIVSRTTFFGSVTTLTVL
B2: E18 (antibody, V domains shown)
VH: QVQLRESGPSLVTPSQTLSLTCAVSGGSLSTHDVVWVRQAPGRALEWVGGISSRGTTYYNPALKSRLSITQDLSKNQVSLSVGSVTPDDTATYYCAKDLCGGRINGCYNDGYYYSLRVDAWGQGLLVTVSS
VL: QAVLAQPSSVSGSLGQRVSITCSGSSNNIGSYGVGWYQQVPGSGLRTIIYGSSNRPSGVPDRFSGSKSGNTATLTISSLQAEDEADYFCAASDYSSNTVVFASGTTLTVL
B3: C4 (antibody, V domains shown)
VH: QVQLRESGPSLVKPSQTLFLTCTVSGFSLTSYSVNWVRQTPGKMLECLGGIATSGSTGYNPVLKSRLRITKDNSKSQVSLSVSNVTPEDTATYYCAKWSSRGGYDCGVHSSDYSYLDAWGQGLLVTVSS
VL: QAVLTQPSSVSASLGQRVSITCSGSSSNIGRYGATWYQQVPGSGLRTIIYGSSRRPSGVPDRFSGSKSGNTVTLTISSLQPEDEADYFCAAYDISTNAVFGSGTTLTLL
B4: B73 (antibody, V domains shown)
VH: QVQLRESGPSLVKPSQTLSLTCTVSGFSLSSYDVGWVRQAPGKALECLGSITNRGKTGYNPALKSRLSITKDNSKSQVSLSLNSVTTEDTATYYCAKLNSGGYGIDGNGCYAFGSNYNLYVDAWGQGLLITVSS
VL: QAVLTQPSSVSGSLGQRVSITCSGSSSNLGTYNVGWYQQVPGSGLRTIIYGSSSRPSGVPDRFSGSRSGNTATLTISSLQAEDEADYFCTAYDHSISTAVSGSGTTLTVL
B5: B66 (antibody, V domains shown)
VH: QVQLRESGPSLVKPSQTLSLTCTVSGFSLTTYSVNWVRQTPGKALECLGGITSGGNAYYQPSLKSRLSITKDNSKNQVSLSINSATPEDTATYYCGKLSGTGVCEGGCACGHDPHVDAWGQGVLVTVSS
VL: QAVLTQPSSVSGSLGQRISITCSGSSNNVGLYNVGWYQQIPGSGLRTIIYAGDRRPSGVPDRFSGSEFGDTATLTISSLQAEDEADYFCVTYDSTISAAVFGSGTTLTVL
B6: B74 (antibody)
VH: QVQLRESGPGLVKPSQTLSLTCTASGFSLSIKAVGWVRQAPGKALEWLGSIDTGGNTGYNPGLKSRLSITKDNSKSQVSLSLSSVTTEDSATYYCATVHQETKKSCSDGYYYRNECGAYGDCTVGNCCCSYASDYCNWCDFRRVTPTYTYEHHVEAWGQGLLVTVSS
VL: QAVLTQPSSVSGSLGQRVSITCSGSSGNVGNGYVSWYQLIPGSAPRTLIYGDTTRVSGVPDRFSGSRSGNTATLTISSLQAEDEADYFCASAEDSSNNAVFGSGTTLTVL
B7: E54 (antibody)
VH: QVHLRESGPSLVKPSQTLSLTCTASGFSLSDRAVGWVRQAPGKALEWLGSIDTGGTTGYNPGLKSRLRITKDNSKSQVSLSVSTVTTDDSATYYCGAVYQTTETKTTCPEGYSNTGDCDDDCCCWGSDCSRYARWKRYRGGWFSSDYIVTEVYEFHVDAWGQGLLVSVSS
VL: QAVLTQPSSVSGSLGQRVSITCSGSSSNVGNGYVSWYQLIPGSTPRTLIYGDTSPASGVPDRFSGSRSGNTATLTIISFQAEDEADYFCASAEDSSSNVVFGSGTTLTVL
B8: B83 (antibody)
VH: QVQLRESGPSLVKPSQTLSLTCTASGFSLSDKAVGWVRQAPGKALEWLGSIDTGGSTGYNPGLKSRLSITKDTSKTQVSLSVSSVTTEDSATYYCTNVHQKTTTERSCPDLGYKYECGNNCCWYSSCRGCIQGTYTSTYNFYVHAWGQGLRVTVSS
VL: QAVLTQPSSVSGSLGQRVSITCSGSSSNVGNGYVSWYQLIPGSGPRTLIYGDTSRASGVPDRFSGSRSGNTATLTISSLQAEDEADYFCASTEDSSSNVVFGSGTTLTVL
B9: E34 (antibody, V domains shown)
VH: QVQLRESGPSLVKPSQTLSLTCTVSGFSLNDYNVGWVRQAPGKALECLGGYKADGSTNYNSALKSRLSITKDSSKKQVSLSLSSVTTEDTATYYCAKCPSRWGCDYCDNYDFWGQGLLVTVSS
VL: QAVLTQPSSVSGSLGQRVSITCSGSSSDVGKGYVSWYQLMPGSGPRTLIYGDTSRISGVPDRFSGSRSGNTATLTISSLQAEDEADYFCASADDSSSNAVFGSGTTLTVL
B10: E50 (antibody)
VH: QVQLRESGPSLVKPSQTLSLTCTASGFSLSDKAVGWVRQAPGKALEWLGSVDTSGSTGYNPGLESRLIITKDNSKSRVSLSVHSVTSEDSATYYCVTVHQKSRDEKSCPDGYIDGAGCKYGWPCSDQDCCVCSSCVYGYSGMNCVPARYSESYEWNVEAWGQGLLVTVSS
VL: QAVLTQPSSVSGSLGQRVSITCSGSSTNVGNGYVSWYQLIPGSAPRTLIYGDTTRASGVPDRFSGSRSGNTATLTISSLQAEDEADYSCASAEDSSSNAVFGSGTTLTVL
B11: F103 (antibody)
VH: QVQLRESGPSLVKPSQTLSLTCTASGFSLSDKAVGWVRQAPGKALEWLGSIDTGGNSGYNPGLKSRLSITKDNSKSQASLSVSSVITGDSATYYCAIVHQETVRKTSGSDAYTCPDGCVLSPACSRERRCLCGTWPRDYCVDHIQSSTYNFYVEAWGQGLLVTVSS
VL: QAVLTQPSSVSESLGQRVSITCSGISSSVGNGYVSWYQLIPGSAPRTLIYGDTSRASGVPDRFSGSRSGNTATLTISSLQAEDEADYFCASADGSSSNAIFGSGTTLTVL
B12: C9 (antibody, V domains shown)
VH: QVQLRESGPSPVKPSQTLSLTCTVSGFSLSSYAVAWVRQAPGKALEWVAGISGGGSTSYNAALKSRLRITKDNSKSQVALSLSSVTSEDTATYYCVKCANDYGSYFCYNYDYGYDFYVDAWGQGLLVTVSS
VL: QAVLTQPSSVSGSLGQRVSITCAGSSSNIGTYSVGWYQQVPGSGLTTIIYETTGRPKGVPDRFSGSKSGNTATLTITSLQAEDEADYFCVTYELGSGAVFGSGTTLTVL
B13: A35 (antibody, V domains shown)
VH: QVQLRESGPSLVKPSQTLSLTCTVSGFSLSSNGVIWVRQAPGKALEWLGGICGGGSTSFNPSLKSRLTITKDNSKNQVSLSVRSVTPEDTATYYCARSCGSYRDAWYDCASDGYRYHNYVDAW
VL: QAVLTQPSSVSGSLGQRVSITCSGSNNNIGSYAVGWYQQVPGSGLRTIIYGSTIRPSGVPDRFSGSKSRSTATLTISSLQAEDEADYFCATADYSSSTVVFGSGTTLTVL
B14: A19 (antibody, V domains shown)
VH: QVQLRESGPSLVKPSQTLSLTCTTSGFSLSSYAVGWVRQAPGKALEWVGGISSGGKTCPSPALKTRLSITKLNSRGQVSLSVGSVSTEDTATYYCVKFFSGGWTYSCYGIDFGSVDAWGQGVLVTVSS
VL: QAVLTQPSSVSGSLGQRVSITCSGSSNNIGSYGVGWYQQVPGSGLRTIIYGSTSRPSGVPDRFSGSKSGNTATLTISSLQAEDEADYFCAAGDDSSSSVDVFGSGTTLTVL
B15: B82 (antibody, V domains shown)
VH: QVQLRESGPSLVKPSQTLSLTCTVSGFSLSNYAVGWVRQAPGKALEYLGGVRLRGRPDYNPALESRLSITKDNSKSQVSLSVSSVTLEDTATYYCAKSSSGLWDGGCCGGSTSCYVDSWGQGLLVTVSS
VL: QAVLTQPSSVSGSLGQRVSITCSGSSSNIGTYTVGWYQQVPGSGLRTIIYSNNNRPSGVPDRFSGSKSGNTATLTISSLQAEDEADYFCVTYESSISTALFGRGTTLTVL
B16: C5 (antibody, V domains shown)
VH: QVQLRESGPSLVKPSQTLSLTCTVSGFSLSSYGVGWVRQAPGRALEFLADIYSDGSTTYNLALKSRLSIMKDNSKSEVSLSLSSVTTEDTATYYCAKSSRGVGWGDGLHYNENDAGAWGQGLLVTVSS
VL: QAVLSQPPSVSGSLGQTVTIPCTGSSNNIGILGVSWYQQIPGSAPRTLVYNNNKRPSGVADRFSGTKSGNTGTLTIASLQAEDEADYYCASADPNFGGGTRVTVL
B17: B77 (antibody, V domains shown)
VH: QVQLRESGPSLVKPSQTLSLTCTISGFSLSSYTIGWVRQAPGKALEWIGDMSNGGMPYYNPALKSRLSITKHNSKSQVRLSVSSVTPEDTATYYCAKSRYTGDGSIGLYGVDAWGQGLLITVSS
VL: QAVLTQPSSVSGSLGQRVSITCSGTYSNVGTGNYVSWFQQIPGSAPRTLIYSVTNRASGVPDRFSGSRSGHTATLTISSLQAEDEADYFCLSWQSGNTALFGSGTTLTVL
B18: F169 (antibody, V domains shown)
VH: QVQLRESGPSLVKPSQTLSLTCTVSGFSLSTYGVAWVRQAPGKALEWIGGISGRGSGSEYYNPPLQSRLSITKDTSRSQVFLSVRTVAPEDTATYYCVKCIDSWCNYDDSGDIDAWGQGLLVTVSS
VL: QAVLTQPSSVSGSLGQRVSITCSGSTSNIGKCDVGWYQRVPESGLRTIIYGNSKRPSGVPDRFSGSKSGTVATLTISSLQAEDEAEYFCATGDYSLRTAVFGSGTTLIVL
B19: F28 (antibody, V domains shown)
VH: QVQLRESGPSLVKPSQTLSLTCTVSGFSLNTYSVYWVRQVPGKALECIGGISSREARGYNPALKPRLSITKDNSKSQVSLSLSSVTTDDTATYYCAKAARGYAFTCGGISSHSDHYVDAWGQGLLVTVSS
VL: QAVLTQPSSVSGSLGQRVSISCSGSSSNVGTGNHVSWFQQIPGSAPRTLIYGATRRLSGVPDRFSGSRSGNTATLTISSLQAEDEADYFCASWQSDSTTVFGSGTTLTVL

The target in this assay is FMDV O/Mya/98 146S antigen (Foot-and-mouth disease virus serotype …, UniProt G8JKC2, strain). The experiment in a line: cell-based or functional assay.
As to B1, the “virus neutralizing test on BHK-21 cells, IC50” value (“virus neutralizing test” below) amounted to 2.6 µg/mL.
With B2 the figure was 0.78 µg/mL.
As to B3, the “virus neutralizing test” value was 2.86 µg/mL.
In the case of B4, the “virus neutralizing test” value was 3.28 µg/mL.
With B5 the figure was 3.13 µg/mL.
In the case of B6 it was 7.81 µg/mL; in that of B7, 3.65 µg/mL.
In the case of B8 it was 12.2 µg/mL.
For B9, the “virus neutralizing test” value was determined as 3.13 µg/mL.
With B10 the figure was 11.5 µg/mL; with B11, 6.22 µg/mL.
In the case of B12 it was 1.82 µg/mL; in that of B13, 1.43 µg/mL.
With B14 the figure was 17.9 µg/mL.
Consider B15, for which the “virus neutralizing test” value came out at 4.17 µg/mL.
With B16 the figure was 4.69 µg/mL; with B17, 3.91 µg/mL.
With B18 the figure was 5.56 µg/mL.
With B19 the figure was 3.33 µg/mL.
